Measured values as given in a protein production outcome set (Wang et al. 2014).

Experiment: label from the status in PepcDB records

Sequence	protein production
MSPASGSVISCAKVLDDYFYGSSNTVEALLLNSFETPALLFTTETSNLLTDIREDRSRHIEKISPYLLLTAGILSGFNPCLLAVMAFLASVNLTQKGRRKEMLKITLGFSTGIFTMHMLAGLSILGTVNFLPELRSYFSEIAVVMTALLGFWHIYDAYWLRKHAKTTFRTPQPLKDFMSRMDEKNLLLLSFLAGGMFSLVKAPCVGAVYLSLLSLLAMKTDIVRGIEYIWIFNLGLLLPVVLLGLLLAFGLSPKTVTEFRERKRVGIRLITGSILISLALMMQFRIL	failed
MSLKLYGFSVSNYYNMVKLALLEKGLTFEEVTFYGGQAPQALEVSPRGKVPVLETEHGFLSETSVILDYIEQTQGGKALLPADPFGQAKVRELLKEIELYIELPARTCYAESFFGMSVEPLIKEKARADLLAGFATLKRNGRFAPYVAGEQLTLADLMFCFSVDLANAVGKKVLNIDFLADFPQAKALLQLMGENPHMPRILADKEASMPAFMEMIRSGKREGHHHHHH	not failed
EVTGSVSLEALEEVQVGENLEVGVGIDELVNAEAFAYDFTLNYDENAFEYVEAISDDGVFVNAKKIEDGKVRVLVSSLTGEPLPAKEVLAKVVLRAEAKAEGSNLSVTNSSVGDGEGLVHEIAGTEKTVNIIE	not failed
MLINSEIISLSGSMYEDRSYQNEAIDFIASKLANYPGVALEAPTGSGKTMMALLGSLKYAYNGHLKILYLVRTNSQEEQVIRELRTISKNRKIRALPMQGRINLCILYKTADDLKEATAESLSKFCNSRKRQVMEGHQEACPYYTIKVRSKETKDFLFENLPTAEEFYEYAFTNNLCPYESIKASLSDADIVVAPYMYFLNKTVADRFLSHWGVSREQLIIVLDEAHNLPDIGRSLGSFRISIESLNRSEKEAQSFGDPELDRGVHVTDFIEMIRSTLERTIKERVKEDDVRIRFQEFKEYLMIMNKKSEKSIRDLNNYLYLFGEYVENEKEKAGKVPVSYCSSLAQRLEAMMDEDDAMYAAILSKSESGYIQASCLDPSSILSSLKESKTIHMSGTLEPFEFYSDVTGFDIPFRRIENVFPIENRFVSYYEGVSTKYDTLDENEIRKLASIIENIVNGVKRNTIVYFPSYAVMDKVIGSGLDFDFLQEKKNLDQTEFYDVVKKFRNGGKPLLAVSGGRLSEGMNFPGRELELILIAGIPFPRPDATNRALYDYYEMKYKKGWEYAVLAPAIIKIRQEIGRLIRGKDDHGACVILDKRAKQFRRFIPDLVKTDDPVNDINTFFSNFK	failed
MSHPFEGLPTTPTAEELVDKAFSRASRAGGAKDGNEAQQSMLMTASNIASDNMENVVTAWPTIDDLDPFYVELADAVVGEAYPADDDPGIDALKQHLSEISWAADKVVEIRQEYESRVARGDIDTARKLRKQAFARIADVVEEVEDDLAAISTAHNALKDIPDIRPNEPAIVVAGYPNVGKSSFVNRVTRADNEIASYPFTTTQIRVGHFEDQRIRYQLVDTPGLLDRPPEDRNEIESQAVSALEHLADAVLVFIDPSGECGYPLADQLELRNAIEARFDVPVLTIANKSDLSTDVEADHYMSVTEDDNVDGVLQAAIDAVDYELELPFDE	failed
EVKEEDAFYSKKCKLFYKKDNEFKEKGIGTLHLKPTANQKTQLLVRADTNLGNILLNVLIPPNMPCTRTGKNNVLIVCVPNPPIDEKNATMPVTMLIRVKTSEDADELHKILLEKKDA	not failed
MALSADIVGMHYRYPDHYEVEREKIREYAVAVQNDDAWYFEEDGAAELGYKGLLAPLTFICVFGYKAQAAFFKHANIATAEAQIVQVDQVLKFEKPIVAGDKLYCDVYVDSVREAHGTQIIVTKNIVTNEEGDLVQETYTTLAGRAGLEHHHHHH	not failed
MTGKGQGGSWVPGVVSATDRGNFHASPTTATVLDIIGRILRAPLSATDTEIETALAQVADACSADVAQVCRAGTTGPLEPIHSWVRDGHIVLNIQDLCKFCPGSDQTGPVMLRDLKDLPEGPARDRLAGMELRSLVAVPMLRHGVLAGRVLLGWQTASSDLRPEDLAALQSLAEAMHAAAERRESERLTTEAAAALQEDRLLLESILRTSTSAILAFDADARIVFANDEAAALLGTDANRLPGCTLEGVGCRLLSREGEPLPPEALPVARAIAEGQTLRDLHHVLMAADGRQRILSINAAPVAAGAATAVRVVATIDDVTGQVSADSALRTALAEAHQLAFFDPLTGLYNRRGIVEVLRDCLQTCAREKAFLSLLYIDLDGMRQVNGTRGHWLGDRVLQALGARLDNLRQDGGDLGRISADEFVLTCGETHPDAAGAVAAAEAEAQRILESLREPFVVDGLTLEVTASIGLAAISAEDSVEGLLKGVDLAVMAAKAAGGDRACAYRADMEQDMVGRVALAQELREAIRRDEFRIYFEPMVSLGETGLEIVGQEALIRWEHPQRGLLAPIAFIPFAEETGFIRDIDRWVLRAAAQELARWAEDPARRHLGVSINISSAQFLSEEFGQMVREVLDETGVDPTRIELEVTEGTLLSNLGLARTTMMDLRSLGISIALDDFGTGFSSLSYLRDLPVDVLKIDRSFLGGLSDSKANRTILEGIIGLASGLGVALVAEGVETPAQFAWLRAKGCRTFQGYLFGRPVDEAQTQLAPEVSALGGHGGDRAVSGQIKG	failed
MTMLDAAAPPDLAGLFAPAQRRSRTVDWQEPGPVARAAMAMSGLEVMQAIRDGRLPPPPLARLIGFKMAEVHRGRIVMQLDPDQSLENTAGLLHGAIAAALLDTAMGCAISTQQPAGQGSVTMDLKLSYLRPLSVRSGTIVAEGRVVKLGRQSSYTEGFVYDGAGKLAVHATATFAMLGAGPVAAPHPHES	failed
MQTRLATKQDIDTLATLERQHLNDELISGGFHLEGQAFTRTELTQLVEKHWIVVAEVNGRIIGYVIAGRWSFFETWPIYRNMLQRLNRMNGDGPQLTTQNSCQYGPIWIDNAHRGQGVFEALIAGIYREVAPSFDYMVTFIADENERSLAAHTRKANM	failed
MTGTYTELIEGSERLSGLTDVDEVIKDLSRLLRKLVKTRWIAVYFFDRERRDFAPARSTGLPASFLPVFREMPLAPDKIPLLKSMLRKRQHLMLTDPGSSDLLTPKLRKLLRNLCVLAVPMVVRTQVIGAVFMARTRDNPPFSDAETAIIRDLVSHAALVVSHMQLFDE	not failed
MERRGELHRVRVPVSAELEIAEIADRVVKAGGPALLFERVVGKDFPVAIGLFGTRARTAFALGVEDLDELARKVEALLALEPGKGGLSALLGLLPKLPLLRGFFPRRVRRAPVQEVVWRGEEVDLRRLPVLKCWPLDGGPFLTLPLVITKDPETGELNLGMYRMQVLDPRSTAMHWQWHKVGRRHLEKAKRLGRRLEVAVALGGDPVLTYAATAPLPPLPGVSEFHLAGFLRGAPIELARGVTVDLPVPAEAEFVLEGYIDPEEPLVEEGPFGDHTGFYTPVDLYPRFHVTAVTHRKGAIYPATLVGVPPMEDAYLIEATERLFLPALRLVLPEVVDYHMPPEGVAHNWVNVSLRKAYPGQAYKVAYGMLGLGQMMFAKVIVAVDADVPVKPGFAALLEALKHALPGRDTLLLRGPVDVLDHSSRAFAFGGKLVIDGTRKLPEEGGEAPFVPKAHPGLPEDPEVLDQRQWPGLWGAVLAKRRPHQAWEVAERLLRAPQSAGIRLLLLADEDTALSPEELLWYVLNNVDPERDARVMPGVEGPVLVLDGTRKLPEEGFPRVWPERIRMDPKVKALVEARWAEYGLGWTTVGE	failed
MSSSSVIMDFLKYSPQPLQLITRPRHSIHHSTLRSSRRLTTSHNHSTPRSSSSHHHFSPSLDPVAEHHHHQSLDRTLDLVVESPHHHSLDPSLCHQVEFHHHPPLDIILDCQLQSLLDSAINKTLEHKEEMKTLARHSTHYLITWVEYHS	failed
MSLTARSVVLSVLLGAHPAWATASELIQLTADFGIKETTLRVALTRMVGAGDLVRSADGYRLSDRLLARQRRQDEAMRPRTRAWHGNWHMLIVTSIGTDARTRAALRTCMHHKRFGELREGVWMRPDNLDLDLESDVAARVRMLTARDEAPADLAGQLWDLSGWTEAGHRLLGDMAAATDMPGRFVVAAAMVRHLLTDPMLPAELLPADWPGAGLRAAYHDFATAMAKRRDATQLLEVTEGHHHHHH	not failed
MATRRTFLRGAISLTLIGSTGQLRALAHPRANTWALPIDTQAQADLTRYVDVFIGSSGHGHTFPGATLPFGMVQLSPDTDNAVWDACSGYHASNGSIMGFSHTHLSGTGIGDMLDILLMPGTGDVKLAPGPLNAPETGYRQRYDHAEEVASPGYYQVRLKDTDIVAELTATARTGLHRYHFPQHQAGHLLLDLSHAMQDNPSTPPRLRDVELSIVDTRTLLGGRRVYQWAKGRYLFFAMRLSRPFARAQLYSNDAPLTADTRQVQGVCLKAALHFPDAGEAPLLVKVGLSAVSAANALANLDAELPDFDFARVHAEAVAAWENALGRARIATDNPAQRRIFYTSLYHSLLAPTLFSDVDGRYRGMDLQVHTLPTGYHNYSTYSLWDTYRALHPLLTLVQSDRVPDLLQCLVRGAAECPDGVGIWPLQGVETGCMIGYHSAVALAEGYTKGFTGIDYAAAWPHYRKRAMQDHAHGLRYYRRLGYIPSDKVDESVSRTLEYAYDDWACAHLATAAGAHSEARVLRARSRHYRHVFNRDSGFMQPRLENGAWATPFDPRALGHLKQWHDFTECNAWQATFLNQHDVYGYMALFGGADHFAAKLDALFSALSELPPGAPPDIDGMVGQYAHGNEPSHHIAYLYVYAGQAYKTQAMVRRLLREQYHDGRDGLSGNEDCGQMSAWFVLSALGMYAVDPVSGIYVIGSPLFPYAELDVGRGRKLRILARHTSASNVYVQALRWNGSPMTRAWLRHTELAGGGTLEFEMGAQPNLDFGTHPQDLPPSFMALQPVPKHA	failed
MKNELICYKQMPVWTKDNLPQMFQEKHNTKVGTWGKLTVLKGKLKFYELTENGDVIAEHIFTPESHIPFVEPQAWHRVEALSDDLECTLGFYCKKEDYFSKKYNTTAIHGDVVDAAKIISPCKVLDLGCGQGRNSLYLSLLGYDVTSWDHNENSIAFLNETKEKENLNISTALYDINAANIQENYDFIVSTVVFMFLNRERVPSIIKNMKEHTNVGGYNLIVAAMSTDDVPCPLPFSFTFAENELKEYYKDWEFLEYNENMGELHKTDENGNRIKMKFATMLARKK	not failed
MKSWIVKEIKINGLSYFGPLIFTVLPIAERIYKISLNSYIMINYLILVIFLSFICTYLVLSNLFNGIMYTLTYTVGISPKEIILTRLFLFSTIPVLPIAMALWMTSSLTTLAKFIIQIYILVLMSTIIGIIFKNDIIALIMDFIISALGLSVKINFLFPFLSGQLNPLSGIIVVLLLALTIYLLSNVELQKVERV	failed
MFLFLTCKIGNRMVKLRTFINISEDLFVIRNLIGAILQGIGLAYLVPVLLAWFYPEEIPLVIYFAIPGFSCIILGWVLSKHMEKIEDVNLRQAMMASAFIWLFASLVSVIPFMGIAKMRFVDSYFETMSAWTGTGLTMMSNLESYPKILLFWRAWMQWLGGIGIVLVALTVLIRPGVAAARLYKAEARSERILPNFVNTAKIIVQIYAVLTLLGIYLYYSNGMSLFDATIHSMTGLGTGGMSSHDLSIGYFNSLAIETVTVFLMIMGATNFTVHYRMFKNRSLKEFFRDIQVRYMLYFITLIVALMTYSLVFFGHLTPIRALRESIFHAVSAITCTGFGISNLAEYPEIDKILLAILMVIGGSAGSTSGGIKLIRIVLMYQSLKWTIEQAILPKGAVIRKRVNGYEFTEEEIQEVLGFTMTYIAFLLLGTLYIMLRLGVRFADALFEVASAIGNVGLSVGITSPLLPLDIKILLTILMWVGRLEIFSTIVFIVGLAMIFSRRSKE	failed
MTGAVETESMKTVRIREKIKKFLGDRPRNTAEILEHINSTMRHGTTSQQLGNVLSKDKDIVKVGYIKRSGILSGGYDICEWATRNWVAEHCPEWTEGQPIILNEEGDFTLGPLPE	not failed
